According to article PMC8179448:
Where two headings read alike, the source gives them in different places.

How the values were obtained:
[1] = target: 14-3-3ζ (UniProt P63104); test: ITC; settings: for binding against the reference: reference: 240pi
[2] = target: 14-3-3ζ (UniProt P63104); test: fluorescence polarisation
[3] = target: 14-3-3ζ (UniProt P63104); test: fluorescence polarisation; remark: listed apart in the source
[4] = target: 14-3-3ζ (UniProt P63104); test: fluorescence polarisation; remark: listed apart in the source
[5] = target: 14-3-3ζ (UniProt P63104); test: fluorescence polarisation titration, FAM-labelled peptides; settings: for binding against the reference: reference: 240pi
[6] = target: 14-3-3ζ (UniProt P63104); test: fluorescence polarisation; remark: listed apart in the source
[7] = target: T1, 14-3-3ζ protein, P63104; test: native gel or EMSA + cross-linking + other: MALDI-TOF; settings: remark: other sources report otherwise
T1 chain: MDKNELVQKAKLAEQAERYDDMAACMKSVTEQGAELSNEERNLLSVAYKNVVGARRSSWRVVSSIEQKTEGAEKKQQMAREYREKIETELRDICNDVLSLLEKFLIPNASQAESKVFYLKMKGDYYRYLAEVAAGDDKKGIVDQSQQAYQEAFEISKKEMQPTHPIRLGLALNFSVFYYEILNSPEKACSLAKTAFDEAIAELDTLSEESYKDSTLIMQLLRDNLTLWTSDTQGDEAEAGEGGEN

Rnd3 C-terminal peptide (207–241) 210_240piFar (from UniProt P61587 207-241)
dH [1]: -7.35 kcal/mol
stoichiometry N (peptide per 14-3-3ζ) [1]: 0.5

Rnd3 C-terminal peptide (207–241) 240piFar (from UniProt P61587 207-241)
dH [1]: -3.56 kcal/mol
stoichiometry N (peptide per 14-3-3ζ) [1]: 1

FAM-labeled Rnd3 C-terminal peptide (207–241) 240piFar (from UniProt P61587 207-241)
Ka [2]: 3.13e+06 M⁻¹
Kd [2]: 320 nM
ka,1 (two-step fit assuming pS240 binds first; rejected by the paper) [2]: 31.1 μM^−1 s^−1
ka,2 (two-step fit assuming pS240 binds first; rejected by the paper) [2]: 60.2 s^−1
kd,1 (two-step fit assuming pS240 binds first; rejected by the paper) [2]: 13 s^−1
kd,2 (two-step fit assuming pS240 binds first; rejected by the paper) [2]: 345 s^−1
koff [2]: 10.9 s⁻¹
ka,1 (first step of the two-step fit) [3]: 3.92e+07 M⁻¹ s⁻¹
ka,2 (second step of the two-step fit) [3]: 25.6 s⁻¹
kd,1 (first step of the two-step fit) [3]: 19.9 s⁻¹
kd,2 (second step of the two-step fit) [3]: 54.5 s⁻¹
koff [4]: 8.02 s⁻¹

Rnd3 207-241 (from UniProt P61587) 210_240pi
binding against the reference ([5]; sites S210): stronger
binding against the reference ([1]; sites S210): stronger

Rnd3 C-terminal peptide (207–241) 218_240piFar (from UniProt P61587 207-241)
dH [1]: -5.58 kcal/mol
stoichiometry N (peptide per 14-3-3ζ) [1]: 0.5

Rnd3 C-terminal peptide (207–241) all_pi, triply phosphorylated (from UniProt P61587 207-241)
dH [1]: -7.15 kcal/mol
stoichiometry N (peptide per 14-3-3ζ) [1]: 0.5

Rnd3 207-241 (from UniProt P61587) 240piFar
other: association constant K ([5]; reference: no_piFar, sites S240): stronger; reference 0.13

Rnd3 C-terminal peptide (207–241) 218_240pi (from UniProt P61587 207-241)
dH [1]: -6.22 kcal/mol
stoichiometry N (peptide per 14-3-3ζ) [1]: 0.5

Rnd3 207-241 (from UniProt P61587) all_pi
binding against the reference ([5]; sites S210,S218): stronger
binding against the reference ([1]; sites S210,S218): stronger

Rnd3 C-terminal peptide (207–241) 240pi (from UniProt P61587 207-241)
dH [1]: -3.53 kcal/mol
stoichiometry N (peptide per 14-3-3ζ) [1]: 1

Rnd3 C-terminal peptide (207–241) all_piFar (from UniProt P61587 207-241)
dH [1]: -6.26 kcal/mol
stoichiometry N (peptide per 14-3-3ζ) [1]: 0.5

Rnd3 C-terminal peptide (207–241) no_piFar, farnesylated, without phosphate (from UniProt P61587 207-241)
dH [1]: 0.703 kcal/mol

FAM-labeled Rnd3 C-terminal peptide (207–241) 240pi (from UniProt P61587 207-241)
Ka [2]: 290000 M⁻¹
Kd [2]: 3390 nM
koff [2]: 63.9 s⁻¹
Kd [3]: 1490 nM
koff [3]: 44.2 s⁻¹
kon [3]: 2.96e+07 M⁻¹ s⁻¹

FAM-labeled Rnd3 C-terminal peptide (207–241) no_piFar (from UniProt P61587 207-241)
Ka [2]: 130000 M⁻¹

Rnd3 C-terminal peptide (207–241) 210_240pi (from UniProt P61587 207-241)
dH [1]: -8.76 kcal/mol
stoichiometry N (peptide per 14-3-3ζ) [1]: 0.5

FAM-labeled Rnd3 C-terminal peptide (207–241) 218_240pi (from UniProt P61587 207-241)
Kd [2]: 400 nM
ka,1 (two-step fit assuming pS218 binds first; rejected by the paper) [2]: 16.7 μM^−1 s^−1
ka,2 (second step of the two-step fit) [2]: 66.2 s⁻¹
ka,2 (two-step fit assuming pS218 binds first; rejected by the paper) [2]: 29.8 s^−1
kd,1 (two-step fit assuming pS218 binds first; rejected by the paper) [2]: 53.8 s^−1
kd,2 (two-step fit assuming pS218 binds first; rejected by the paper) [2]: 8.64 s^−1
koff [2]: 9.69 s⁻¹
ka,1 (first step of the two-step fit) [3]: 5.75e+07 M⁻¹ s⁻¹
ka,2 (second step of the two-step fit) [3]: 62.2 s⁻¹
kd,1 (first step of the two-step fit) [3]: 35.2 s⁻¹
kd,2 (second step of the two-step fit) [3]: 38.9 s⁻¹
koff [6]: 8.42 s⁻¹

Rnd3 207-241 (from UniProt P61587) 218_240pi
binding against the reference ([1]; sites S218): stronger

B1: 14-3-3ζ protein, P63104 1-245 (natural protein)
chain: T1 chain
stoichiometry N [7]: 2
